Results reported in article PMC3792970, “A Single Nucleotide Polymorphism Associated with Hepatitis C Virus Infections Located in the Distal Region of the IL28B Promoter Influences NF-κB-Mediated Gene Transcription”.

What was measured:
NF-kB p50 [1] = molecular target: T1, NF-kB p50 (UniProt P19838 42-367); assay: EMSA; 2 ug p50; diffuse shift; EMSA: 1X BB stated as 50 mM Tris pH 8.0, 250 mM KCl, 2.5 mM EDTA, 0.5% Triton X-100, 62.5% glycerol, 1 mM DTT; 1 ug poly(dI:dC), 10 ul, room temperature 30 min, 4% native PAGE at 4 C; pull-down: 1X BB, poly(dI:dC), RT 2 h; details: protein: recombinant; chain copies: 2; label: 5'-32P on forward strand (EMSA); biotin (pull-down); blunt
T1 sequence (P19838 42-367): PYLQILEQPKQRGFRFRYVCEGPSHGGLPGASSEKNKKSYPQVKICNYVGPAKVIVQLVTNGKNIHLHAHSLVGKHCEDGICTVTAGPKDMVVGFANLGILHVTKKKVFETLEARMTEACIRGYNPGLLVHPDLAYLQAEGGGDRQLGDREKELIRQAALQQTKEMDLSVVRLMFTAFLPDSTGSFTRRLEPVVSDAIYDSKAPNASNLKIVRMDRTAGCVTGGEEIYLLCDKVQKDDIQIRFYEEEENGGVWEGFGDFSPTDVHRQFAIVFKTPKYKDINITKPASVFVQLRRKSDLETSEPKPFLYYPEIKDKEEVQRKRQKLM

NF-kB p50 [2] = molecular target: T1, NF-kB p50; assay: EMSA; 2 ug p50; distinct bands; EMSA: 1X BB stated as 50 mM Tris pH 8.0, 250 mM KCl, 2.5 mM EDTA, 0.5% Triton X-100, 62.5% glycerol, 1 mM DTT; 1 ug poly(dI:dC), 10 ul, room temperature 30 min, 4% native PAGE at 4 C; pull-down: 1X BB, poly(dI:dC), RT 2 h; details: protein: recombinant; chain copies: 2; label: 5'-32P on forward strand (EMSA); biotin (pull-down); blunt

Binder	binding result (NF-kB p50 [1])	binding result (NF-kB p50 [2])
G-T (NF813G-T) (dsDNA) DNA 1: CCCCTGCCCTCAGTGGGCAGCCTCTGCATTCCCTCAGCTCCCTTTCTCTCTGTGA DNA 2: TCACAGAGAGAAAGGGAGCTGAGGGAATGCAGAGGCTGCCCACTGAGGGCAGGGG	binds	–
C-C (NFC-C849) (dsDNA) DNA 1: CCCCTGCCCTCAGTGGGCAGCCTCTCCATCCCCTCAGCTCCCTTTCTCTCTGTGA DNA 2: TCACAGAGAGAAAGGGAGCTGAGGGGATGGAGAGGCTGCCCACTGAGGGCAGGGG	–	binds
